This note sets out measurements from US20240301052A1 (LANOVA MEDICINES DEVELOPMENT, published 2024).

The target of assay [1] is T1, human SLC34A2 (human, UniProt O95436 1-690).
T1 sequence (looked up): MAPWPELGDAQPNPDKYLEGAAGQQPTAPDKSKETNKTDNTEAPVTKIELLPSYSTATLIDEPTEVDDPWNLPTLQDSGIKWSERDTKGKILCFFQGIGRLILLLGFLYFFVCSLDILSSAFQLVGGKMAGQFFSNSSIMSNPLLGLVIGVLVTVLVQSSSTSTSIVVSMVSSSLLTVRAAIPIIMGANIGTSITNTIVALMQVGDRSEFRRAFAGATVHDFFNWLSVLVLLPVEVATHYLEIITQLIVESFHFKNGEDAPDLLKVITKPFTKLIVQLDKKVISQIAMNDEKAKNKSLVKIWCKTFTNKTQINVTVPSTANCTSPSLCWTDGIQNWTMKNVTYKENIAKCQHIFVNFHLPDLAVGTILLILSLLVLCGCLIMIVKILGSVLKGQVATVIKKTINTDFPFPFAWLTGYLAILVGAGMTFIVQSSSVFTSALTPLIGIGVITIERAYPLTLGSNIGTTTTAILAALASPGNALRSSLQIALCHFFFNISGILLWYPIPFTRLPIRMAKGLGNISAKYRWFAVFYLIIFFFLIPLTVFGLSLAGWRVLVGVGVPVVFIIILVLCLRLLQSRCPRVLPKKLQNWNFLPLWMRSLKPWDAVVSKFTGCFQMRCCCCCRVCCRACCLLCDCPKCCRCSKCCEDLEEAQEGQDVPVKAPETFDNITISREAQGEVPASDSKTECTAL
In words: cell-based or functional assay.

Assay [2] deals with T1, human SLC34A2. As to the kind of experiment: FACS, OVCAR3 cells. The method in brief:
(§1)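 Flow cytometric read-out of bound humanized antibody, detected with a fluorescent conjugated secondary antibody. Cells (transfected HEK293/H_SLC34A2, OVCAR3, RMG-1) were exposed to antibody for 60 minutes at 4° C. before washing and 30-minute secondary staining at 4° C.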
Background: A flow cytometer gives signals particle by particle.

For assay [3], the target named is T1, human SLC34A2. In words: FACS, HEK293/human SLC34A2 cells. The method in brief:
as §1

The target of assay [4] is T1, human SLC34A2. In words: FACS, RMG-1 cells. The method in brief: as §1
Assay [5] deals with T2, Rhesus SLC34A2 (Rhesus, UniProt F7HDA3 1-690).
T2 construct: whole, on cells
T2 sequence: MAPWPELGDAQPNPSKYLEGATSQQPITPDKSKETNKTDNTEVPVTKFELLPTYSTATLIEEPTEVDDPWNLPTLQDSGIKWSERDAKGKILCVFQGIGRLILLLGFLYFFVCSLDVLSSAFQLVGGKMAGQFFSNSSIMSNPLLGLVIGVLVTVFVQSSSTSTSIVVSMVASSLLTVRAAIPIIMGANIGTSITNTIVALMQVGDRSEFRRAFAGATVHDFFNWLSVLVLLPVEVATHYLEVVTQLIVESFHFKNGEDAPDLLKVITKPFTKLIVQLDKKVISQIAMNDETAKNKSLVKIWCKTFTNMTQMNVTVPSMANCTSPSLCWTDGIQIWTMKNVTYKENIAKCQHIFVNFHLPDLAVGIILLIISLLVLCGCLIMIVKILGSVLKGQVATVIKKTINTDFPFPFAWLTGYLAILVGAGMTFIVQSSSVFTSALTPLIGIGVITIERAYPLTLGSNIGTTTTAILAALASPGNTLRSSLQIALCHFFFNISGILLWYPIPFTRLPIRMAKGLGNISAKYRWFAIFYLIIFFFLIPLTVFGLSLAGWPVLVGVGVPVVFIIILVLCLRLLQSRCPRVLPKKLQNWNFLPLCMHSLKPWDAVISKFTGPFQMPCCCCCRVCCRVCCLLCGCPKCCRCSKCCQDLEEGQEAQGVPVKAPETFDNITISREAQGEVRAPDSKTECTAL
As to the kind of experiment: FACS, HEK293/Rhesus SLC34A2 cells.

Assay [6] deals with T2, Rhesus SLC34A2. As to the kind of experiment: FACS, HEK293/Rhesus SLC34A2 cells. This is another data set of the same source.
Assay [7] concerns the target T1, human SLC34A2. In words: FACS, HEK293/human SLC34A2 cells. The method in brief:
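HEK293 cells expressing human SLC34A2 incubated with PTM-derisked antibodies, 8-point 4-fold series from 200 nM, 60 min at 4 °C. Washed, stained with fluorescent secondary antibody 30 min at 4 °C, then analysed by flow cytometry.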
This is another data set of the same source.

A further assay deals with T3, Cynomolgus SLC34A2 (Cynomolgus, UniProt A0A2K5UHY1 1-690).
T3 construct: whole, on cells; also called Cyno SLC34A2
T3 sequence: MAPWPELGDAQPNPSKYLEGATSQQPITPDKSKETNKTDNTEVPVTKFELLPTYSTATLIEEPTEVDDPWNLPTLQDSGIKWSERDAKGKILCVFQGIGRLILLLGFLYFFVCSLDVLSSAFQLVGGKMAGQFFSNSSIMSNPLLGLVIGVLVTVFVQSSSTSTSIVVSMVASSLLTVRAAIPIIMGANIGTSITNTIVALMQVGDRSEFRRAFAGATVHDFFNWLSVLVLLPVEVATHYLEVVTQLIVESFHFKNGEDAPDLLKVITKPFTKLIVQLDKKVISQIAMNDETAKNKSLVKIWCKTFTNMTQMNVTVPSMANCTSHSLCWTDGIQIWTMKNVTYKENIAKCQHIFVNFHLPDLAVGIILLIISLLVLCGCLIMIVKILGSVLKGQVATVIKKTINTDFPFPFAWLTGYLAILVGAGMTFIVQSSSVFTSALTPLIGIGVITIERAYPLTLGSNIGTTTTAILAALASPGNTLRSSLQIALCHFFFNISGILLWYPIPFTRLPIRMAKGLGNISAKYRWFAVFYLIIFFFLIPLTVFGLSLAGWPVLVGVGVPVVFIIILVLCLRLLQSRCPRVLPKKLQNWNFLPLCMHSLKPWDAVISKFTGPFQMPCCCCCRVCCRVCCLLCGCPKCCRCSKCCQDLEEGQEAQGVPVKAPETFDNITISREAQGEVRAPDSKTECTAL
As to the kind of experiment: FACS, cells expressing Cynomolgus SLC34A2.

Where two headings read alike, the source gives them in different places.

B1: 63A11D5B4.p1.z9 hIgG1 (antibody, V domains shown)
VH: QVQLVQSGAEVVKPGASVKMSCKTSGYTFITYNMHWVRQAPGQGLEWIGAIYPGSGDTSYNQKFKGRVTLTADKSTSTAYMELSSLRSEDTAVYYCSISTIITTGAVDYWGQGTLVTVSS
VL: DIQMTQSPSSLSASVGDRVTITCKASQDVGTAVAWYQQKPGKVPKLLIYWTSTRHTGVPSRFSGSGSGTDFTLTISSLQPEDVATYYCQQYSRIPLTFGGGTKVEIK
notes: humanized hIgG1
Usually EC50 stands for the concentration giving half of the maximal effect. Low values mean a more potent agent, high ones a less potent agent. Regarding B1, the “ADCC reporter EC50” value with human SLC34A2 [1] was found to be 1.69 nM. For the same molecule, the “ADCC reporter Top (MFI)” value with human SLC34A2 [1] is 116000 MFI. In addition, the EC50 with human SLC34A2 [2] was determined as 9.12 nM; in the assay with human SLC34A2 [3], 5.49 nM; with human SLC34A2 [4], 28.3 nM; with Rhesus SLC34A2 [5] it was 1.6 nM; in the assay with Rhesus SLC34A2 [6], 1.6 nM. Moreover, the Top in the assay with human SLC34A2 [3] is 36800 MFI; in the assay with human SLC34A2 [4], 12200 MFI. In addition, the “Top (MFI)” value with Rhesus SLC34A2 [6] is 11800 MFI.

B2: xi63A11D5B4 hIgG1 (antibody, V domains shown)
VH: QVQLQQPGAELVKPGASVKMSCRTSGYTFITYNMHWVKQTPGQGREWIGAIYPGNGDTSYNQKFKGKATLTADKSSSTAYMQLNSLTSEDSAVYYCSISTIITTGAVDYWGQGTSVTVAS
VL: DIVMTQSHKFMSTSVGDRVSITCKASQDVGTAVAWYQQKAGQSPKLLIYWTSTRHTGVPDRFTGSGSGTDFTLIIRSLQSEDLADYFCQQYSRIPLTFGSGTKLEIK
notes: chimeric, hIgG1
Consider B2, for which the EC50 was 10.5 nM with human SLC34A2 [2]; 5.21 nM with human SLC34A2 [3]; 14.4 nM with human SLC34A2 [4]; 2.13 nM with human SLC34A2 [7]; 5.33 nM with Cynomolgus SLC34A2; 2.3 nM with Rhesus SLC34A2 [6]. Also, the results for the Top in the assay with human SLC34A2 [3] and in the assay with human SLC34A2 [4] were 35600 MFI and 11200 MFI, respectively. Also, the figures for the “Top (MFI)” value in the assay with human SLC34A2 [7], with Cynomolgus SLC34A2 and with Rhesus SLC34A2 [6] were 30400 MFI, 3510 MFI and 15200 MFI, respectively.

B3: xi30H9B8F9 hIgG1 (antibody, V domains shown)
VH: QVQLQQPGAELVKPGASVKMSCKTSGYTFTTNNMHWVKQTPGQGLEWIGAIYPGNGATAYNQKFKGKATLTADKSSSTAYMQLSSLTSEASAVYYCARGMYGHGAMDYWGQGTSVIVSS
VL: DIVMTQSHKFMSRSVGDRVRITCKASQDVGTAVAWYQQKPGQSPKLLIYWATTRHSGVPDRFTGSGSGTDFIFTISNVQSEDLADYFCQQYSSNPLTFGAGTKLELK
notes: chimeric, hIgG1
On to B3, for which the “ADCC reporter EC50” value in the assay with human SLC34A2 [1] is 1.26 nM. For the same molecule, the “ADCC reporter Top (MFI)” value with human SLC34A2 [1] came to 109000 MFI. Moreover, the EC50 with human SLC34A2 [2] worked out at 0.74 nM; with human SLC34A2 [3], 1.63 nM; with human SLC34A2 [4], 1.19 nM; with human SLC34A2 [7], 1.14 nM; with Cynomolgus SLC34A2, 1.08 nM; with Rhesus SLC34A2 [6] it was 0.9 nM. In addition, the Top came to 40800 MFI with human SLC34A2 [3] and 11500 MFI in the assay with human SLC34A2 [4]. Besides, the “Top (MFI)” value in the assay with human SLC34A2 [7] turned out to be 32200 MFI; with Cynomolgus SLC34A2, 4080 MFI; with Rhesus SLC34A2 [6] it was 17400 MFI.

B4: xi91C9F1 hIgG1 (antibody, V domains shown)
VH: EVQLQQSGPELVKPGTSVKISCKTSGFFFTEYIIHWVKQSHGRSLEWIGGIIPNNGVTNYKQNFRGKAALTADKSSNTAYMELRSLTSEDSAVYYCARWRNGYYSAMDSWGQGTSVTVSS
VL: DIVVTQSHKFMSTSLGDRVSITCTASQDVGTAVAWYQQKPGHSPKLLIYWASTRHTGVPERFTGSGSGTDFTLTITNVQSEDLADYFCQQYRTSPLTFGVGTKLELK
notes: chimeric, hIgG1
As to B4, in the assay with human SLC34A2 [1], the “ADCC reporter EC50” value was determined as 1.96 nM. For the same molecule, in the assay with human SLC34A2 [1], the “ADCC reporter Top (MFI)” value came to 133000 MFI. The EC50 was 2.5 nM with human SLC34A2 [2]; 1.77 nM in the assay with human SLC34A2 [3]; 1.76 nM with human SLC34A2 [4]; 1.57 nM in the assay with human SLC34A2 [7]; 9.11 nM with Cynomolgus SLC34A2; 1.2 nM with Rhesus SLC34A2 [6]. Moreover, the values for the Top with human SLC34A2 [2], with human SLC34A2 [3] and with human SLC34A2 [4] were 21000 MFI, 32100 MFI and 9730 MFI, respectively. In addition, the “Top (MFI)” value with human SLC34A2 [7] amounted to 28600 MFI; with Cynomolgus SLC34A2, 2430 MFI; with Rhesus SLC34A2 [6], 11400 MFI.

B5: 62G10E4G8.p3.z15 hIgG1 (antibody, V domains shown)
VH: QVQLVQSGAEVVKPGASVKMSCKASGYTFPSYITHWVKQAPGQGLEWIGAIYPGNADTSYIQKFKGRATLTADKSTSTAYMELSSLRSEDTAVYYCARGTYGTSAWFTYWGQGTLVTVSS
VL: EIVLTQSPATLSVSPGERATLSCRARQNIGNNLYWYQQKPGQSPRLLIKYASQSISGIPSRFSGSGSGTDFTLTISSLQSEDFAVYFCQQSFSWPLTFGQGTKLEIK
notes: humanized hIgG1
On to B5, for which the “ADCC reporter EC50” value with human SLC34A2 [1] worked out at 5.39 nM. Besides, the “ADCC reporter Top (MFI)” value with human SLC34A2 [1] came to 123000 MFI. For the same molecule, the EC50 is 3.76 nM with human SLC34A2 [2]; 2.34 nM with human SLC34A2 [3]; 3.69 nM with human SLC34A2 [4]; 1.4 nM in the assay with Rhesus SLC34A2 [5]; 1.4 nM with Rhesus SLC34A2 [6]. In addition, the Top in the assay with human SLC34A2 [3] was found to be 33600 MFI; with human SLC34A2 [4], 10800 MFI. Further, the “Top (MFI)” value in the assay with Rhesus SLC34A2 [6] was determined as 14400 MFI.

B6: xi62G10E4G8 hIgG1 (antibody, V domains shown)
VH: QVQLQQSGAEVVKPGASVKMSCKASGYTFPSYITHWVKQTPGQGLEWIGAIYPGNGDTSYIQKFKGKATLTADKSSSTAYMQLSSLTSEDSAVYYCARGTYGTSAWFTYWGQGTLVTVSA
VL: DIVLTQSPATLSVTPGDSVSLSCRARQNIGNNLYWYQQKSHESPRLLIKYASQSISGIPSRFSGSGSGTDFTLTINSVETEDFGVYFCQQSFSWPLTFGAGTKLELK
notes: chimeric, hIgG1
Take B6: the “ADCC reporter EC50” value with human SLC34A2 [1] came to 4.56 nM. In the assay with human SLC34A2 [1], the “ADCC reporter Top (MFI)” value is 101000 MFI. In addition, the EC50 came to 3.73 nM with human SLC34A2 [2]; 4.26 nM in the assay with human SLC34A2 [3]; 7.97 nM in the assay with human SLC34A2 [4]; 1.95 nM in the assay with human SLC34A2 [7]; 3.33 nM with Cynomolgus SLC34A2; 1.8 nM in the assay with Rhesus SLC34A2 [6]. The Top with human SLC34A2 [3] was determined as 32700 MFI; in the assay with human SLC34A2 [4] it was 11300 MFI. Moreover, the results for the “Top (MFI)” value with human SLC34A2 [7], with Cynomolgus SLC34A2 and in the assay with Rhesus SLC34A2 [6] were 30300 MFI, 4020 MFI and 13300 MFI, respectively.
